The results in this text go back to patent US20110097328A1 (MIT, published 2011).

The target in experiment [1] is T1, PARP12-GFP fusion protein (UniProt Q9H0J9 1-701).
T1 construct: Expressed in HeLa S3 cells from pEGFP-C1; not shown: EGFP (green fluorescent protein) encoded by vector pEGFP-C1, located N-terminal (5') to the PARP
T1 sequence (looked up): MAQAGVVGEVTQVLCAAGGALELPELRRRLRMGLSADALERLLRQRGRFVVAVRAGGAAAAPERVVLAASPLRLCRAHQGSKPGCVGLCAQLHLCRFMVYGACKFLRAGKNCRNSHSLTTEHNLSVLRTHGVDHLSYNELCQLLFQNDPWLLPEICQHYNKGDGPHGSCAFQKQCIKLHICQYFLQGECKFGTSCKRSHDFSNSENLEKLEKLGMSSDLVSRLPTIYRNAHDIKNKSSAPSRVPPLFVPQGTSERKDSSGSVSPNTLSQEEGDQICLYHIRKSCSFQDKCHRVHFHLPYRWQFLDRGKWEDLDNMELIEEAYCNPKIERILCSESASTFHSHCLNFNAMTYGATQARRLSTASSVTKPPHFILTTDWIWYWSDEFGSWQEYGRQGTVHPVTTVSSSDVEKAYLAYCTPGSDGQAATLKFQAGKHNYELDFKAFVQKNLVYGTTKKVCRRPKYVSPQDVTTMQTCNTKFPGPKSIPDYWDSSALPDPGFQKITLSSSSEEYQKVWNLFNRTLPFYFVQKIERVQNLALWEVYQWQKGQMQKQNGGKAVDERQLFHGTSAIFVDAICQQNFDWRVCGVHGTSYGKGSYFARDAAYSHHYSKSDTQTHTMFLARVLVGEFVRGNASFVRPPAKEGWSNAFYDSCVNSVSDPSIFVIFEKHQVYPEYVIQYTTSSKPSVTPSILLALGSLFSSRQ
Description: co-immunoprecipitation: anti-GFP IP from lysate of transfected HeLa S3 cells (0 or 20 nM pateamine A, 30 min), immunoblot with anti-LSM1. As for the experimental part: (§1) FIG. 25C is a picture of several immunoblots of a 4-12% SDS-PAGE gel containing proteins immunoprecipitated with an anti-GFP antibody from lysate from HeLa S3 cells transfected with a pEGFP-C1 plasmid expressing GFP, PARP5A-GFP, PARP12-GFP, PARP13-GFP, PARP13.1-GFP, or PARP15-GFP following treatment with 0 or 20 nM pateamine A for 30 minutes. The immunoblots were developed using one of the following antibodies: anti-Agog, anti-DDX6, anti-LSM1, anti-PABP, anti-FMRP, anti-eIF1A, anti-eIF2a, anti-eIF3η, anti-eIF4A1, and anti-eIF4E.
(§2) Data from a separate set of experiments indicate that several stress granule-associated proteins bind to the PARP13-GFP, PARP12-GFP, and PARP5A-GFP fusion proteins. In these experiments, HeLa S3 cells were transfected with a pEGFP-C1 plasmid encoding a PARP13-GFP, PARP12-GFP, or PARP5A-GFP fusion protein and treated with 0 or 20 nM pateamine A for 30 minutes. Cell lysates from the cells were immunoprecipitated using an anti-GFP antibody and the immunoprecipitated proteins were electrophoresed using 4-12% SDS-PAGE. The resulting proteins were transferred to a membrane and immunoblotted using commercially-available antibodies specific for different stress granule-associated proteins: Ago2, DDX6, LSM1, PABP, FMRP, eIF1A, eIF2α, eIF3η, eIF4A1, and eIF4E.
(A western blot detects proteins with antibodies after separation by electrophoresis.)

Experiment [2] deals with T2, PARP5A-GFP fusion protein (UniProt O95271 1-1327).
T2 construct: Expressed in HeLa S3 cells from pEGFP-C1; also called tankyrase 1-GFP; not shown: EGFP (green fluorescent protein) encoded by vector pEGFP-C1, located N-terminal (5') to the PARP
T2 sequence (looked up): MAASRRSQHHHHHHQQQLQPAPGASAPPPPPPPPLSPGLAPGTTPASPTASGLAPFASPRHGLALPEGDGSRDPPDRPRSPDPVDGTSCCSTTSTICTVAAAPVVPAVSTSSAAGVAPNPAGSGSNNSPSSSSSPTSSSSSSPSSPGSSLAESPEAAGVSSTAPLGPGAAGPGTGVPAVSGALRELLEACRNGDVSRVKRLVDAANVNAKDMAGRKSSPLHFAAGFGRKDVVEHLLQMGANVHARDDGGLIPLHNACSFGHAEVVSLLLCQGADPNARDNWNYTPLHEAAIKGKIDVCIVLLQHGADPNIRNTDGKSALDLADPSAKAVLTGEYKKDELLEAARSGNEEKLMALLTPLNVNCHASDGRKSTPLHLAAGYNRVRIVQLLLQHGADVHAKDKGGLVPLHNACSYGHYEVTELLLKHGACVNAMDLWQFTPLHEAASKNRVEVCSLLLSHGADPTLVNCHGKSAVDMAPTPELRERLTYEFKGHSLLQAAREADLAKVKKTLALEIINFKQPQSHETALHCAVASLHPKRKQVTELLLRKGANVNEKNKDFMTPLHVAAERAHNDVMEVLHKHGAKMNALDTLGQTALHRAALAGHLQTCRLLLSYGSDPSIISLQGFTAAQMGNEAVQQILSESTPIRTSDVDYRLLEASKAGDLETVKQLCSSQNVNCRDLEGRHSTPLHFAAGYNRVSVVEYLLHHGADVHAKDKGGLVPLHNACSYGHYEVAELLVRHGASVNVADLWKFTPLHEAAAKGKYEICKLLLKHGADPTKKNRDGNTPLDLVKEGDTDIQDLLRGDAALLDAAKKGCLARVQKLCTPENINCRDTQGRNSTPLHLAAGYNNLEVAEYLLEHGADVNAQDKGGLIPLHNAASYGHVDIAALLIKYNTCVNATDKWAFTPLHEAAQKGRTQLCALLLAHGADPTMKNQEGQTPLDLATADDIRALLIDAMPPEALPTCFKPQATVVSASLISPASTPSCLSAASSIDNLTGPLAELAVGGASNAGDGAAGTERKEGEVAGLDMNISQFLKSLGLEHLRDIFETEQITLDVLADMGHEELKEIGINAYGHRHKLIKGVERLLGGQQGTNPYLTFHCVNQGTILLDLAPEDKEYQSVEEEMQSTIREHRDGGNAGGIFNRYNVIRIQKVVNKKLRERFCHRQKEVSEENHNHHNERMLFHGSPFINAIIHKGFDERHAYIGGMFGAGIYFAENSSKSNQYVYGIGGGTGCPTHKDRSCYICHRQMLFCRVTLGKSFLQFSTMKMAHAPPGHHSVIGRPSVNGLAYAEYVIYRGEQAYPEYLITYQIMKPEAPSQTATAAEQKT
Described as above. How it is done: as §1, §2

B1: LSM1 (other, human (HeLa S3 cells), UniProt O15116 1-133, looked up)
single chain: MNYMPGTASLIEDIDKKHLVLLRDGRTLIGFLRSIDQFANLVLHQTVERIHVGKKYGDIPRGIFVVRGENVVLLGEIDLEKESDTPLQQVSIEEILEEQRVEQQTKLEAEKLKVQALKDRGLSIPRADTLDEY
notes: endogenous protein in the cell lysate; member of the group m8
Turning to B1, the binding result in experiment [1] and in experiment [2] was “no binding” in each case.
